Source: the supplement of paper PMC10065799, “High-throughput profiling of sequence recognition by tyrosine kinases and SH2 domains using bacterial peptide display” (eLife, 2023)

Key:
Grb2 SH2 = Grb2 SH2 (UniProt P62993); experiment: SH2 binding enrichment of the phosphorylated peptide, bacterial display (enrichment ratio); higher = better substrate or ligand; peptides without Tyr show the background
SHP2-C SH2 = experiment: as above
c-Src SH2 = experiment: as above
FGFR1 = FGFR1 (UniProt P11362); experiment: phosphorylation enrichment, bacterial display (enrichment ratio); higher = better substrate or ligand; peptides without Tyr show the background
Jak2 = Jak2 (UniProt O60674); experiment: as above
MERTK = MERTK (UniProt Q12866); experiment: as above
Fer (mouse) = experiment: as above
EPHB1 = EPHB1 (UniProt P54762); experiment: as above
c-Src = experiment: as above
AncSZ = experiment: as above
Fyn = Fyn (UniProt P06241); experiment: as above
FGFR3 = FGFR3 (UniProt P22607); experiment: as above
c-Abl (mouse) = experiment: as above
Fes = Fes (UniProt P07332); experiment: as above
EPHB2 = EPHB2 (UniProt P29323); experiment: as above
Hck = Hck (UniProt P08631); experiment: as above
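For SH2 binding enrichment of the phosphorylated peptide, bacterial display in this document: peptide library displayed on the E. coli surface as eCPX fusions, selected cells deep-sequenced, score is each peptide's frequency after selection divided by its frequency in the input.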
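For phosphorylation enrichment, bacterial display in this document: 11-residue human phosphosite peptides and single-mutation variants displayed on the E. coli surface, counted by deep sequencing, each peptide's frequency after selection divided by its frequency in the unselected input library; frequency after pTyr selection over input frequency; kinase dosed for 20-30% of maximal phosphorylation in three min.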

Sequence of Fes (P07332 whole entry, looked up): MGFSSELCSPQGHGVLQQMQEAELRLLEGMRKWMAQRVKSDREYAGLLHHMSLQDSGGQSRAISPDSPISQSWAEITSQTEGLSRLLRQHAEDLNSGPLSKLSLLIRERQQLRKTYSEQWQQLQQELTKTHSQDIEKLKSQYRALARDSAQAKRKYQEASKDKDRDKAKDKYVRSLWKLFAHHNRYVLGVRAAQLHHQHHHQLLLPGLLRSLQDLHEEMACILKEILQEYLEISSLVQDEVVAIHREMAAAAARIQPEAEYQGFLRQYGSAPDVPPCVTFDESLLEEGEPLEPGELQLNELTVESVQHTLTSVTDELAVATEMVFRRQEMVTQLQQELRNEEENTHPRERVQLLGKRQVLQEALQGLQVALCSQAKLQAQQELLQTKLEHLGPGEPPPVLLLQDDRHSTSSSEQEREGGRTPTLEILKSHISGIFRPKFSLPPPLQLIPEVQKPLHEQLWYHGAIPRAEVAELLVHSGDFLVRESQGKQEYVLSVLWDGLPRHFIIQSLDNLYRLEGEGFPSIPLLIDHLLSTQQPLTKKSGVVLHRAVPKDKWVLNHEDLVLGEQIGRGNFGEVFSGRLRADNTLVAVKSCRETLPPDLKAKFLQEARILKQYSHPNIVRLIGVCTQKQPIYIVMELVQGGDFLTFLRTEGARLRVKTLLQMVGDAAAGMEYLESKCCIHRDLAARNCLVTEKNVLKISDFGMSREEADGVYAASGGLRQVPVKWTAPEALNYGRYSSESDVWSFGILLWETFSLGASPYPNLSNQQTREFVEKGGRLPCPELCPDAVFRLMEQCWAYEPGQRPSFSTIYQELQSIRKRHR
Sequence of Hck (P08631 whole entry, looked up, the tested form may be a part): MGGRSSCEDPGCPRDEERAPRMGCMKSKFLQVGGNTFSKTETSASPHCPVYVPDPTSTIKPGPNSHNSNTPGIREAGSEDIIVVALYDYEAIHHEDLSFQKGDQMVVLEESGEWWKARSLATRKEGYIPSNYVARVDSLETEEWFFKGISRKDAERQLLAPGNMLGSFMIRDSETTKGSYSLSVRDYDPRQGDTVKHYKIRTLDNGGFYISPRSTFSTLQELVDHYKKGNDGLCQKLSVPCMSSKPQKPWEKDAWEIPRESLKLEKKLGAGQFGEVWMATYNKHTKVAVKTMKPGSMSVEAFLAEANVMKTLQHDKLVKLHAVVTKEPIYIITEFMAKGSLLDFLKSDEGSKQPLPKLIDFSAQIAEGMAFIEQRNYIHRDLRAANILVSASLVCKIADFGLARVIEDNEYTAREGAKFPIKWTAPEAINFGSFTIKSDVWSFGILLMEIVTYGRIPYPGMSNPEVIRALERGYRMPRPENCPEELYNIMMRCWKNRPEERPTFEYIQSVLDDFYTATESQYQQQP
Sequence of EPHB1 (P54762 whole entry, looked up): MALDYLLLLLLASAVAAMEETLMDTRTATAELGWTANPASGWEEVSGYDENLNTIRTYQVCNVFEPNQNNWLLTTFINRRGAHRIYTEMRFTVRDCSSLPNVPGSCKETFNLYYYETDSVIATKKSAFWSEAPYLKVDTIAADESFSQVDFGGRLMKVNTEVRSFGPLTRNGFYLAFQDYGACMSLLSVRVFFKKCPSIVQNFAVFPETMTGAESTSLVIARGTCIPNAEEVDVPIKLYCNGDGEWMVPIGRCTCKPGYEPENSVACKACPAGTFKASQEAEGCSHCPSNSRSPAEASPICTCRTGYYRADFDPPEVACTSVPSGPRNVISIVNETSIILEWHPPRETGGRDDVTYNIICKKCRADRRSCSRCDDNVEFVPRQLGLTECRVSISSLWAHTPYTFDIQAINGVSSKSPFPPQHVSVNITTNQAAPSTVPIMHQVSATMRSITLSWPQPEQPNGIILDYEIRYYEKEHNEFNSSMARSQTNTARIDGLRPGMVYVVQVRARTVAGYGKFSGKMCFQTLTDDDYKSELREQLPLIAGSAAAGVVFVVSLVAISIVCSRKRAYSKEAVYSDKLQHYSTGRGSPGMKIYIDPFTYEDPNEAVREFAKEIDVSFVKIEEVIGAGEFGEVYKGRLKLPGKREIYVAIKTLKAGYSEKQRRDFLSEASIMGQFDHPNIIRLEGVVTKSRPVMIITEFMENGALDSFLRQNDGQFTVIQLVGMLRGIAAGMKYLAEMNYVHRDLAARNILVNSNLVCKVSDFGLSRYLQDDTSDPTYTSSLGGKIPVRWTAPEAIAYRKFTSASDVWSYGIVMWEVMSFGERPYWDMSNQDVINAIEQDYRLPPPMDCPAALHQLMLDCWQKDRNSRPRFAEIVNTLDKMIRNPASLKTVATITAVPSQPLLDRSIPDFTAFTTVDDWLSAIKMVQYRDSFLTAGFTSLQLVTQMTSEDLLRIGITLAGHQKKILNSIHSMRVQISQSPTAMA
Sequence of MERTK (Q12866 whole entry, looked up): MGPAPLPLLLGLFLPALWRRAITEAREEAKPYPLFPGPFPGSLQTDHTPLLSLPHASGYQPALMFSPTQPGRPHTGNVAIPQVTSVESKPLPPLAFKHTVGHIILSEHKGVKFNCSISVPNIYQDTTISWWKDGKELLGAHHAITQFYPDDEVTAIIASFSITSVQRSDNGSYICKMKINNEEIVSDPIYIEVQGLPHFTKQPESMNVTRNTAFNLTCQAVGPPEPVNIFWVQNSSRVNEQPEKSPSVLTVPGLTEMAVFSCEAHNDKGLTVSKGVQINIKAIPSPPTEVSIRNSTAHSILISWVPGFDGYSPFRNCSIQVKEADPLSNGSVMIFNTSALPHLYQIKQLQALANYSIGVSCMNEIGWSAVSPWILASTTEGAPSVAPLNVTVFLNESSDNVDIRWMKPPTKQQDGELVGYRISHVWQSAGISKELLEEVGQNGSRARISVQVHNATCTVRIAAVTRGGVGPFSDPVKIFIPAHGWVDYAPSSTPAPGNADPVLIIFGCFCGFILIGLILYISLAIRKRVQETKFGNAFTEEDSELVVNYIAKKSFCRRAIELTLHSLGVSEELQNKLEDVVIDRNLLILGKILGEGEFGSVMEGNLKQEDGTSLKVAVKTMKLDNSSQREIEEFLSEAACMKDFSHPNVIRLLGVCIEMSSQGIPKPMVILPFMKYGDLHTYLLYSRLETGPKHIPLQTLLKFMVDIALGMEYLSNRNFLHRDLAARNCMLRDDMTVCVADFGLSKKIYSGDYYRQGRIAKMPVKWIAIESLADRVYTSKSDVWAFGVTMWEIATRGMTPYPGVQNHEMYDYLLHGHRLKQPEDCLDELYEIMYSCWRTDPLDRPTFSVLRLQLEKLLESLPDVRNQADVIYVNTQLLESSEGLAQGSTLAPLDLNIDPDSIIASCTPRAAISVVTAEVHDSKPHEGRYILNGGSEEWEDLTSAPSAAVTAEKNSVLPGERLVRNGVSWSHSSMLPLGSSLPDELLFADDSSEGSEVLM
Sequence of Fyn (P06241 whole entry, looked up): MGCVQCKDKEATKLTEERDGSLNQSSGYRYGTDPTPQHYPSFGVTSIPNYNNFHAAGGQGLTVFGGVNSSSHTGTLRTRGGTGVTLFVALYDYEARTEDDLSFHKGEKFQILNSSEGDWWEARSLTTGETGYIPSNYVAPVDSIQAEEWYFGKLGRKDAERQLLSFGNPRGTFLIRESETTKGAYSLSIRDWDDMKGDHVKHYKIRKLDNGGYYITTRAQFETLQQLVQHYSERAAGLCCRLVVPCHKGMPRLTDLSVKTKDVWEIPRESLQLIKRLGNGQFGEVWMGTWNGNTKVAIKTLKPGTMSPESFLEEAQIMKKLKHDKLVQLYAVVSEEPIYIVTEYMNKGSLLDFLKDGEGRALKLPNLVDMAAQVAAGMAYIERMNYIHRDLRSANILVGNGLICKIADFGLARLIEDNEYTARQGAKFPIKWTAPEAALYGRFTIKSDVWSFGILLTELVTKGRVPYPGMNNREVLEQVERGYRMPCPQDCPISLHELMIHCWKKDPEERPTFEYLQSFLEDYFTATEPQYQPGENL
Sequence of FGFR3 (P22607 whole entry, looked up): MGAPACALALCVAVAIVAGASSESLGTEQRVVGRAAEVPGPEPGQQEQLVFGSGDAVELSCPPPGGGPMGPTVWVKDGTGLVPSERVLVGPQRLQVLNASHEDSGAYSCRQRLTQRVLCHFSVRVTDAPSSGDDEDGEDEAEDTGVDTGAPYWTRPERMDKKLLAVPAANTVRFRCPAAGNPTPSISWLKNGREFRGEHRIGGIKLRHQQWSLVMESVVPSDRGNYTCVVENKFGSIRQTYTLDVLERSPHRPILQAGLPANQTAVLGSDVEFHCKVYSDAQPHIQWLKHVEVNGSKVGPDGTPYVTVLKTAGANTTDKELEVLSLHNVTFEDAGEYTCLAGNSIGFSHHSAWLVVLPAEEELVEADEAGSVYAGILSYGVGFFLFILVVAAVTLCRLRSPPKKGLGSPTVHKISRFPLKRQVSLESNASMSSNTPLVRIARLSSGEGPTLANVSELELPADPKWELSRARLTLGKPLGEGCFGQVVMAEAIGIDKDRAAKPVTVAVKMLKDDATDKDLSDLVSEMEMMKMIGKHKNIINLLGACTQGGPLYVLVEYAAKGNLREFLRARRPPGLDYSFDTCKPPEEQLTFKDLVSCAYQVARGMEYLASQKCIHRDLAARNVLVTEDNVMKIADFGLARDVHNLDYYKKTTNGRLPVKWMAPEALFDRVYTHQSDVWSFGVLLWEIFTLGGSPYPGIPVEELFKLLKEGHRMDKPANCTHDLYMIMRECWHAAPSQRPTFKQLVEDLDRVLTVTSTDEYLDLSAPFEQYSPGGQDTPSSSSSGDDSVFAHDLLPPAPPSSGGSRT

Row | Sequence | SH2 binding enrichment (Grb2 SH2) | SH2 binding enrichment (SHP2-C SH2) | SH2 binding enrichment (c-Src SH2) | phosphorylation enrichment (FGFR1) | phosphorylation enrichment (Jak2) | phosphorylation enrichment (MERTK) | phosphorylation enrichment (Fer (mouse)) | phosphorylation enrichment (EPHB1) | phosphorylation enrichment (c-Src) | phosphorylation enrichment (AncSZ) | phosphorylation enrichment (Fyn) | phosphorylation enrichment (FGFR3) | phosphorylation enrichment (c-Abl (mouse)) | phosphorylation enrichment (Fes) | phosphorylation enrichment (EPHB2) | phosphorylation enrichment (Hck)
1 | TYAVSYLPDMS [FLNC_Y1602_T1599A] | 0.809 | 0.95 | 0.674 | 0.428 | 0.924 | 1.6 | 0.575 | 0.559 | 0.811 | 0.867 | 0.589 | 0.576 | 0.963 | 0.763 | 0.785 | 0.732
2 | AESPEYVHMFT [FAM111A_Y511_YF] | 0.878 | 0.564 | 0.528 | 1.69 | 1.11 | 0.407 | 0.542 | 0.579 | 0.443 | 1.32 | 0.502 | 1.58 | 0.703 | 1.12 | 0.598 | 0.629
3 | PRPAGYPSTVS [CACNA1C_Y1832] | 1 | 0.621 | 0.484 | 0.333 | 0.55 | 0.363 | 0.331 | 0.327 | 0.735 | 0.458 | 0.43 | 0.446 | 0.653 | 0.493 | 0.413 | 0.251
4 | KSLFHYRQFSA [CPS1_Y1491_YF] | 0.734 | 0.601 | 0.395 | 0.546 | 0.942 | 0.415 | 0.534 | 0.553 | 0.472 | 0.656 | 0.466 | 0.498 | 0.59 | 0.859 | 0.453 | 0.42
5 | DLLMQYPKAQG [FAM83C_Y600] | 0.882 | 0.763 | 0.485 | 0.341 | 0.496 | 0.356 | 0.452 | 0.498 | 0.352 | 0.812 | 0.385 | 0.467 | 0.491 | 0.543 | 0.301 | 0.364
6 | GGPTYYIDTNA [ACTL6A_Y69] | 0.822 | 0.694 | 0.679 | 1.09 | 0.727 | 1.08 | 0.407 | 0.698 | 0.778 | 0.885 | 0.926 | 0.963 | 0.555 | 0.893 | 0.514 | 0.899
7 | EATKVYLDDPT [G6PD_Y322_G321V] | 0.837 | 0.746 | 0.534 | 0.428 | 0.803 | 0.385 | 0.451 | 0.482 | 0.357 | 0.852 | 0.444 | 0.656 | 0.656 | 0.967 | 0.558 | 0.458
8 | SQQTYYPVSNM [ABCD1_Y181_R182P] | 0.864 | 0.534 | 0.532 | 13.5 | 9.57 | 10.5 | 0.946 | 5.58 | 5.27 | 1.32 | 3.77 | 10.5 | 2.44 | 0.68 | 4.24 | 6.81
9 | RSRSPYSPVFR [CDK13_Y399_L403F] | 0.706 | 0.405 | 0.463 | 0.459 | 0.737 | 0.655 | 0.403 | 0.546 | 0.576 | 0.812 | 0.6 | 0.462 | 0.58 | 0.77 | 0.452 | 0.736
10 | TLSGIYQYNIA [FOXL2_Y81_I84N] | 0.817 | 1.07 | 1.33 | 0.752 | 0.951 | 9.86 | 13.1 | 1.82 | 6.54 | 1.32 | 4.61 | 0.701 | 1.06 | 0.963 | 1.15 | 4.79
11 | AFAEVYEGQVS [ALK_Y1131_G1128A] | 0.888 | 0.769 | 0.506 | 0.414 | 1.09 | 0.484 | 0.518 | 0.559 | 1.21 | 1.07 | 0.563 | 0.695 | 0.868 | 0.974 | 0.504 | 0.796
12 | SISLKYEGRVY [ABL1_Y167_R166K] | 0.814 | 0.66 | 0.388 | 0.51 | 1.24 | 0.451 | 0.499 | 0.663 | 0.511 | 1.13 | 0.47 | 0.897 | 0.983 | 1.38 | 0.747 | 0.507
13 | EPSVDYCVVKI [CAD_Y735] | 1.11 | 1.22 | 0.684 | 2.25 | 1.1 | 0.529 | 1.26 | 2.83 | 0.618 | 1.57 | 0.577 | 1.71 | 0.774 | 1.11 | 1.95 | 0.664
14 | IVTLKYPIEHG [ACTB_Y69_L65V] | 0.77 | 0.807 | 0.45 | 0.523 | 0.74 | 0.481 | 0.489 | 0.434 | 0.422 | 0.698 | 0.483 | 0.702 | 0.871 | 0.76 | 0.412 | 0.466
15 | CKLCQYYLDHL [ATRX_Y1849_Y1847C] | 1.54 | 1.67 | 1.39 | 0.579 | 0.806 | 0.419 | 0.423 | 0.673 | 1.57 | 0.795 | 0.515 | 0.613 | 0.593 | 0.779 | 0.419 | 0.437

Continued, in another order:

Row | SH2 binding enrichment (Grb2 SH2) | SH2 binding enrichment (SHP2-C SH2) | SH2 binding enrichment (c-Src SH2) | Sequence | phosphorylation enrichment (FGFR1) | phosphorylation enrichment (Jak2) | phosphorylation enrichment (MERTK) | phosphorylation enrichment (Fer (mouse)) | phosphorylation enrichment (EPHB1) | phosphorylation enrichment (c-Src) | phosphorylation enrichment (AncSZ) | phosphorylation enrichment (Fyn) | phosphorylation enrichment (FGFR3) | phosphorylation enrichment (c-Abl (mouse)) | phosphorylation enrichment (Fes) | phosphorylation enrichment (EPHB2) | phosphorylation enrichment (Hck)
16 | 0.776 | 0.627 | 0.696 | ALAHEYHGGGG [HBB_Y146_K145E] | 0.41 | 0.599 | 0.287 | 0.354 | 0.397 | 0.41 | 0.469 | 0.361 | 0.361 | 0.493 | 0.461 | 0.314 | 0.425
17 | 1.76 | 1.65 | 1.24 | AERKLYRNVML [ZNF569_Y33_Q29E] | 0.367 | 0.653 | 0.383 | 0.359 | 0.365 | 0.312 | 0.45 | 0.337 | 0.407 | 0.453 | 0.519 | 0.408 | 0.319
18 | 1.26 | 1.03 | 0.685 | VMAVAYRLAEQ [HK1_Y461_T457M] | 0.463 | 1.04 | 0.46 | 0.491 | 0.619 | 0.463 | 0.972 | 0.431 | 0.676 | 0.708 | 1.06 | 0.496 | 0.445
19 | 0.647 | 0.472 | 0.373 | RGRSTYYWPSP [GAGE12J_Y9_R13S] | 1.49 | 0.656 | 6.32 | 0.699 | 0.994 | 1.23 | 2.12 | 0.938 | 1.01 | 0.647 | 0.885 | 0.871 | 0.949
20 | 0.906 | 0.803 | 0.706 | WAFNLYDINKY [KCNIP3_Y174_D179Y] | 0.553 | 0.953 | 2.65 | 3.29 | 2.29 | 1.57 | 0.987 | 1.83 | 0.725 | 0.709 | 1.24 | 3.92 | 3.09
21 | 0.68 | 0.546 | 0.47 | NGSFLYVIISQ [LRP1B_Y1988_R1987L] | 0.468 | 1.2 | 0.468 | 0.663 | 0.844 | 0.403 | 1.27 | 0.367 | 0.88 | 0.931 | 1.44 | 0.666 | 0.539
22 | 0.879 | 0.76 | 0.567 | MKKMHYVDPDR [ST3GAL5_Y99_H104R] | 0.331 | 0.534 | 0.294 | 0.346 | 0.321 | 0.322 | 0.407 | 0.395 | 0.521 | 0.436 | 0.495 | 0.388 | 0.349
23 | 0.762 | 0.527 | 0.395 | ESVNTYLQTSP [NAT1_Y208_M205V] | 0.386 | 0.799 | 0.588 | 0.49 | 0.538 | 0.589 | 0.874 | 0.441 | 0.577 | 0.655 | 0.887 | 0.838 | 0.556
24 | 0.849 | 0.859 | 1.4 | EFGFRYELVQF [UGGT2_Y1289_Y1285F_YF] | 0.477 | 1.11 | 0.375 | 0.887 | 0.592 | 0.315 | 1.26 | 0.433 | 0.853 | 0.64 | 1.21 | 0.585 | 0.509
25 | 0.893 | 3.97 | 0.929 | ILTYKYLQIPM [KIT_Y547_K550I] | 0.785 | 0.817 | 0.406 | 0.389 | 0.7 | 0.396 | 1.11 | 0.422 | 0.807 | 0.706 | 0.997 | 0.631 | 0.483
26 | 4.77 | 1.19 | 1.22 | MGRVNYGAYIN [GLB1_Y485] | 0.383 | 0.54 | 0.315 | 0.34 | 0.504 | 0.393 | 0.701 | 0.463 | 0.499 | 0.587 | 0.617 | 0.486 | 0.395
27 | 0.888 | 0.958 | 0.52 | VRFMEYETQVK [TARDBP_Y155_T153M] | 0.394 | 0.979 | 0.373 | 0.418 | 1.25 | 0.481 | 0.943 | 0.384 | 0.694 | 0.73 | 0.981 | 1.14 | 0.459
28 | 0.725 | 0.531 | 0.546 | SRLDSYVRSLP [TRAPPC1_Y133] | 0.427 | 0.556 | 0.447 | 0.338 | 0.606 | 0.448 | 0.579 | 0.373 | 0.525 | 0.473 | 0.666 | 0.395 | 0.443
29 | 0.67 | 0.461 | 0.453 | DFEGLYQEGGG [TMEM159_Y159_E154D] | 0.761 | 0.88 | 0.453 | 0.64 | 0.746 | 0.923 | 1.23 | 0.874 | 0.817 | 0.569 | 1.17 | 0.791 | 1.22
30 | 0.992 | 0.836 | 0.611 | PVGVLYEVKVF [PTS_Y128_K129E_YF] | 1.02 | 2.08 | 1.16 | 2.05 | 1.5 | 0.89 | 2.17 | 0.849 | 1.41 | 1.29 | 2.67 | 0.91 | 0.986
31 | 1 | 0.701 | 0.736 | KDHPDYKFQRR [SOX10_Y171_P175R_YF] | 0.338 | 0.615 | 0.389 | 0.612 | 0.338 | 0.446 | 0.696 | 0.321 | 0.423 | 0.667 | 0.631 | 0.387 | 0.382
32 | 1 | 0.8 | 0.478 | AAPAAHDAADT [GAMT_Y27_Y27H] | 0.403 | 0.531 | 0.45 | 0.418 | 0.387 | 0.32 | 0.618 | 0.45 | 0.452 | 0.48 | 0.665 | 0.602 | 0.749
33 | 0.986 | 1.18 | 1.95 | HDRGNYVQLNM [RECQL4_Y353_R355Q] | 1.99 | 0.55 | 0.686 | 0.674 | 8.72 | 0.442 | 0.744 | 0.493 | 1.35 | 0.552 | 1.1 | 3.46 | 0.508
